In PMC3306812 (Molecular Cell, 2012):

Biological target: full-length OTUB1 (human, UniProt Q96FW1 1-271)
Experiment: NMR titration

Chain of full-length OTUB1 (Q96FW1 whole entry): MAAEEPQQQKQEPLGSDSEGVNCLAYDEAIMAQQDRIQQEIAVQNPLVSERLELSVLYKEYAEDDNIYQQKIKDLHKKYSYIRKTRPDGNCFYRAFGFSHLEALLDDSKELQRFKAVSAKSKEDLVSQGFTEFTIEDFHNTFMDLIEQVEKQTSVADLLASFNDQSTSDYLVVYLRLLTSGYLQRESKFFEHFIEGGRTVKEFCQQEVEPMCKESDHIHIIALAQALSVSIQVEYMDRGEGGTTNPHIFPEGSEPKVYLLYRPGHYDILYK

- binding result: binds
B1: UBC13 (enzyme, UniProt P61088 1-152, looked up)
chain: MAGLPRRIIKETQRLLAEPVPGIKAEPDESNARYFHVVIAGPQDSPFEGGTFKLELFLPEEYPMAAPKVRFMTKIYHPNVDKLGRICLDILKDKWSPALQIRTVLLSIQALLSAPNPDDPLANDVAEQWKTNEAQAIETARAWTRLYAMNNI
